Blank lines part the entries; values can stand above or below the binder they belong to.
Key:
[1] = biological target: T1, sLTβR (UniProt P36941 31-227, limits assumed); experiment: SPR (Biacore 3000); with VH44/VL100 disulfide (second 'VH-S16Q, VL-S46L' row, below the disulfide wild-type)
T1 construct: Used in solution in ITC and as the analyte in SPR; also called soluble lymphotoxin beta receptor; antigen

[2] = biological target: T1, sLTβR; experiment: isothermal titration calorimetry at 30 °C, Fab titrated into sLTβR in PBS
Method: The Fab and sLTβR were concentrated to 6.0 and 2.0 mg/mL, respectively, using Amicon ultracentrifugal filter devices (MWCO 10,000). The concentrated stock solutions were simultaneously dialyzed against PBS prior to the ITC measurements. ITC was performed on a VP-ITC unit (MicroCal LLC, Northampton, Mass.) set to 30° C. Approximately 500 μL of a 7 μM sLTβR solution was placed into the sample cell and PBS dialysate was placed in the reference cell. […] ITC curves were analysed using the Origin Software supplied by the manufacturer.

[3] = biological target: T2, LTβR-Ig (UniProt P36941 31-227, limits assumed); experiment: thermal challenge assay; T50 = temperature at which 50% of the molecules keep binding to plate-coated LTβR-Ig (DELFIA); unit taken from the x axis
T2 construct: extracellular domain; also called LTβR Ig receptor; recombinantly produced LTβR receptor; not shown: human Fc region
T2 sequence (P36941 31-227 limits assumed): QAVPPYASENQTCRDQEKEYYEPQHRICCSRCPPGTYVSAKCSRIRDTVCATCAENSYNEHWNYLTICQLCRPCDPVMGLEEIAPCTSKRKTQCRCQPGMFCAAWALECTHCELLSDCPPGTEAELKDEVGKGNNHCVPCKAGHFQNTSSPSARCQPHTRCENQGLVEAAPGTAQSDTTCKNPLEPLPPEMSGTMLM

T1 sequence (P36941 31-227 limits assumed): as above

Kd [1]: 3.3 nM
B1: BHA10 scFv VH44/VL100 disulfide, VH-S16Q, VL-S46L, (G4S)4 linker (scFv, name in Kabat numbering)
scFv: QVQLVQSGAEVKKPGQSVKVSCKASGYTFTTYYLHWVRQAPGQCLEWMGWIYPGNVHAQYNEKFKGRVTITADKSTSTAYMELSSLRSEDTAVYYCARSWEGFPYWGQGTTVTVSSGGGGSGGGGSGGGGSGGGGSDIQMTQSPSSLSASVGDRVTITCKASQNVGINVAWYQQKPGKAPKLLISSASYRYSGVPSRFSGSGSGTDFTLTISSLQPEDFATYFCQQYDTYPFTFGCGTKVEIK
notes: It is read here as the disulfide version; also called pIEH081

Kd [2]: 1.9 nM
T50 [3]: 62 °C
B2: BHA10 Fab (Fab, V domains shown)
VH: QVQLVQSGAEVKKPGSSVKVSCKASGYTFTTYYLHWVRQAPGQGLEWMGWIYPGNVHAQYNEKFKGRVTITADKSTSTAYMELSSLRSEDTAVYYCARSWEGFPYWGQGTTVTVSS
VL: DIQMTQSPSSLSASVGDRVTITCKASQNVGINVAWYQQKPGKAPKSLISSASYRYSGVPSRFSGSGSGTDFTLTISSLQPEDFATYFCQQYDTYPFTFGQGTKVEIK
notes: Made by enzymatic cleavage of BHA10 IgG1; also called BHA10 Fab (CHO)

Reference: US20080050370A1 (Biogen, published 2008)
